Target: T1, myc-tagged mouse separase, wild-type (WT) (mouse, UniProt P60330 1-2118)
T1 construct: Studied in HeLa cell extracts by co-immunoprecipitation and immunoblot; also called wild-type separase; wild-type mouse separase; not shown: myc tag
Assay: immunoprecipitation with securin from anaphase cell extract, immunoblot for separase-myc (FIG. 7A)
Procedure: Typically, the cell extracts are mixed with […] of agarose beads conjugated to anti-myc tag (manufactured by MBL), or protein A beads (manufactured by Bio-RAD) coupled to the desired antibodies, and incubated for 2 hr at 4° C., then washed three times with IP buffer and three times with TBS-T (150 mM sodium chloride, 20 mM Tris pH 8.0, 0.05% (v/v) Tween 20) and then subjected to analysis.
In the wild-type mouse separase replaced cell and SA mutant mouse separase replaced cell, the cell cycle arrest by Monastrol, was cancelled. Forty minutes after cancellation of the cell cycle arrest by Monastrol a cell population enriched in anaphase cells was prepared. Then, a cell extract was obtained and subjected to immunoprecipitation with cyclin B1 and securin to analyze the presence or absence of separase-myc. As a result, separase having a small molecular weight, i.e., cleaved separase, is observed.

T1 sequence (P60330 whole entry): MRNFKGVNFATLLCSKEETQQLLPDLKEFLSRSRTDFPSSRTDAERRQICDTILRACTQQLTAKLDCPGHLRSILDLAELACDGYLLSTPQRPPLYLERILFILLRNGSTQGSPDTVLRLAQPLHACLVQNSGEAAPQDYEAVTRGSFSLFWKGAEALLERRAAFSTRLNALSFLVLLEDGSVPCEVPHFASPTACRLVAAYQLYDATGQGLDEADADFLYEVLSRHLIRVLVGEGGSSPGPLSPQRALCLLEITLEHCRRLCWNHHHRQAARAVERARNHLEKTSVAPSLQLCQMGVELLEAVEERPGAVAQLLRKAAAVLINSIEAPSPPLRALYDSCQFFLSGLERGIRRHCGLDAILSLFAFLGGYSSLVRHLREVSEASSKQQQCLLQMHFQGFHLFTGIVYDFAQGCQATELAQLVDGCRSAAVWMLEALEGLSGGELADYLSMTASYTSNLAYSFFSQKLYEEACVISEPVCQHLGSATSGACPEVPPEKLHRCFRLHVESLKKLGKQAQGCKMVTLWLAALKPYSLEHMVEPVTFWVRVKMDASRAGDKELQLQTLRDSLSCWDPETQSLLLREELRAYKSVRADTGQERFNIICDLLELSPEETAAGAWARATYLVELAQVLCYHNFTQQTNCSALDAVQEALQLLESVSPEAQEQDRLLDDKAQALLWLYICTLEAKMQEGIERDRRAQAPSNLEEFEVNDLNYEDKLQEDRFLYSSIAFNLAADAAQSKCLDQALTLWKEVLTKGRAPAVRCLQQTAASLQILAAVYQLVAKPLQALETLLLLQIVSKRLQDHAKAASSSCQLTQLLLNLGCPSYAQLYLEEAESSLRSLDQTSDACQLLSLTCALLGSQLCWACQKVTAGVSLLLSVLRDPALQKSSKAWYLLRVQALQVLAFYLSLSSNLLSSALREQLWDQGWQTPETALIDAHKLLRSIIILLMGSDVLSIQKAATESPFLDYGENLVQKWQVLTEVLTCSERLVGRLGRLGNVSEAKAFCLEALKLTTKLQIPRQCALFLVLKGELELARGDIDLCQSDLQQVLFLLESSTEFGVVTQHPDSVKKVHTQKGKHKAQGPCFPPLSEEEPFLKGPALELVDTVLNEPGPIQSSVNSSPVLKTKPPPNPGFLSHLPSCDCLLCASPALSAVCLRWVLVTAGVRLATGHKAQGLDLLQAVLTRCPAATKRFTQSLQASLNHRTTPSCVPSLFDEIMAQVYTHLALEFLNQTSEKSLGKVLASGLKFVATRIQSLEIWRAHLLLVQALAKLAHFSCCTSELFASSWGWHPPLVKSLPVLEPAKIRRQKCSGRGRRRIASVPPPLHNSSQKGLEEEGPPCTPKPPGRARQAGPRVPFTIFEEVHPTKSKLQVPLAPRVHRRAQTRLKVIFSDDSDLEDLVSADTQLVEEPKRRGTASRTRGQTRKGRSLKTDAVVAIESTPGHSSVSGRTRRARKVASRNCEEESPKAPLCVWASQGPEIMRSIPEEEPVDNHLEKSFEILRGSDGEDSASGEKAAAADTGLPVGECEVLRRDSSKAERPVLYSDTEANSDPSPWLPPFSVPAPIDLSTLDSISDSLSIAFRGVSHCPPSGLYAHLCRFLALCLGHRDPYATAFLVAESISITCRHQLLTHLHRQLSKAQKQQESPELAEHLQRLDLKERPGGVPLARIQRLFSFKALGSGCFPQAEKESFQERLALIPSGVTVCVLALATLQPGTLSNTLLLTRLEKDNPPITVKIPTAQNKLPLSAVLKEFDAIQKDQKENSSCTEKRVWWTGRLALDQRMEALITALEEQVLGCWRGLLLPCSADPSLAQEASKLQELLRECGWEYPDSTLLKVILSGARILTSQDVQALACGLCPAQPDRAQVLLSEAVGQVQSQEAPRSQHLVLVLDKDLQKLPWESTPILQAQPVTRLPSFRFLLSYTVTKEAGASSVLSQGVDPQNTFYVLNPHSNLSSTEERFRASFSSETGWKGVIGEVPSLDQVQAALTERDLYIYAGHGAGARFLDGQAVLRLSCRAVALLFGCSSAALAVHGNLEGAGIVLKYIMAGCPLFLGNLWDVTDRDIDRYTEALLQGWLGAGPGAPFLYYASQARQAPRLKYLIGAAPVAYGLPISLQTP

B1: securin (other, UniProt O95997 2-202, looked up)
chain: ATLIYVDKENGEPGTRVVAKDGLKLGSGPSIKALDGRSQVSTPRFGKTFDAPPALPKATRKALGTVNRATEKSVKTKGPLKQKQPSFSAKKMTEKTVKAKSSVPASDDAYPEIEKFFPFNPLDFESFDLPEEHQIAHLPLSGVPLMILDEERELEKLFQLGPPSPVKMPSPPWESNLLQSPSSILSTLDVELPPVCCDIDI
notes: Endogenous protein in HeLa cell extracts
B1: binds.

From US10174359 (JAPANESE FOUNDATION FOR CANCER RESEARCH, dated 2019)
